Laboratory results as given in patent US20100092481A1.

B1: 3G16 (antibody, V domains shown)
VH: RAQLVQSAAEMKNPGASVKVSCEASGYTFTGYYVHWMRQAPGQGLEWMGWINPMTGATKSPQKFQGRVTMTRDTSTTATHIELTRLRSDDSAVFFCARGGPTSTRITGKRHFDLWGRGTLITVAS
VL: QSALTQPASVSGSPGESITISCTGTISDVGAYNSVSWYQQHSGTAPELIIYDVTNRPAGVSSRFSGSKSGNTASLTISWLQSEDEAEYYCSSYTTSDTYVFGSGTQVTVL
B2: 11B12 (antibody, V domains shown)
VH: QMQLVQSGPQVKKPGTSVKVSCKASGFTFTSSAMQWVRQARGQRPEWIGWIVLGSGNTNYAQKFQERVTLTRDMSTATAYMELSSLRSEDTAVYYCAADRGRGGYNVYTYWGQGTLVAVSS
VL: EIVMTQSPGTLSLSPGERATLSCRASQTISNTYVAWYQQKPGQAPRLLIYGASSRATGIPDRFSGSGSGTDFTLTIRRLEPEDFAVYYCQQNGQSPWTFGQGTNVEIK
B3: 13H11 (antibody, V domains shown)
VH: QVQLVQSGAEVKKPGASVKVSCKASGYTFTNYYIHWVRQAPGQGLEWMGIIHPSSGGTSYAQKFQGRVTMTRDTSTSTVSMDLSSLRSEDTAVYYCGRAFRILGLSDVFVNDWGQGTVVTVSS
VL: DIQMTQSPSSLSASVGDRVTITCRASQGINNYLAWYQQKPGKVPKLLIYAASTLQSGVPSRFSGSGSGTAFTLTILSLQPEDVATYYCQKYNSAPFTFGPGTKVDIK
B4: 6B4 (antibody, V domains shown)
VH: QVQLVESGGGVVQPGRSLRLSCAASGFRFNEFNMHWVRQAPGKGLEWVAVISIDGRHKYNADSVEGRFTISRDNSRNTLYLQMNSLRVEDTALYYCVTDGKAVDGFSGILEFWGQGTPVTVST
VL: EIVLTQSPATLSLSPGERATLSCWASQSVGGYLAWYQQKPGQAPRLLIYDASIRATGIPARFSGSGSGTHFTLTINSLEPEDFAVYYCQQRNNWPPLTFGGGTKVEIK

Columns and labels:
[1] = molecular target: T1, hCMV gH protein, full length, expressed in HEK293T cells (human cytomegalovirus), P12824; assay: cell cross-competition, 20x excess; competitor 11B12-biotin; conditions: remark: other sources report otherwise
[2] = molecular target: T1, hCMV gH protein, full length, expressed …; assay: cell cross-competition, 20x excess; competitor 13H11-biotin; conditions: remark: other sources report otherwise
[3] = molecular target: T1, hCMV gH protein, full length, expressed …; assay: cell cross-competition, 20x excess; competitor 3G16-biotin; conditions: remark: other sources report otherwise
[4] = molecular target: gB 69-78 peptide (human cytomegalovirus) (UniProt P06473); assay: ELISA on peptide

| Binder | Inhibition of binding (%) [1] | Inhibition of binding (%) [2] | Inhibition of binding (%) [3] | EC50 [4] |
| --- | --- | --- | --- | --- |
| B1 | 0% | 0% | 100% | – |
| B2 | 100% | 100% | 0% | – |
| B3 | 100% | 100% | 0% | – |
| B4 | – | – | – | 0.044 µg/mL |
